Measurements: patent publication US20250230251A1 (Bristol-Myers Squibb, published 2025)
Blank lines part the entries; values can stand above or below the binder they belong to.

Assays:
huIL-18Rβ-HisAvi [1] = molecular target: T1, huIL-18Rβ-HisAvi (human, UniProt O95256 20-356, biotinylated in the Octet blocking assay); assay: SPR T200, pH 7.4; sample stored at pH 6, 4 w 4C
T1 construct: Soluble analyte in all SPR runs; captured on streptavidin sensors in the Octet assay; also called human IL-18Rβ; human IL-18Rβ-Avi-His
T1 sequence: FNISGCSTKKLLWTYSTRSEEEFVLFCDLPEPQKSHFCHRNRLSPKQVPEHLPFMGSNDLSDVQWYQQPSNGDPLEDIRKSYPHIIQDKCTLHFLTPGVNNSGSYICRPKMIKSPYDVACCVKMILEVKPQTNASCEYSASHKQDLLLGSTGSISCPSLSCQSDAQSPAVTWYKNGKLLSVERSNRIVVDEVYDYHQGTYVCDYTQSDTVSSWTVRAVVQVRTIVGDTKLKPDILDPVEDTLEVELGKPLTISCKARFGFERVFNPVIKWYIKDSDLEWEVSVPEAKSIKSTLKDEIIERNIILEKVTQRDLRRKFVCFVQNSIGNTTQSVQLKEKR

cyIL-18Rβ-HisAvi [2] = molecular target: T2, cyIL-18Rβ-HisAvi (cynomolgus monkey); assay: SPR T200, mAb on anti-hFc, 37C, pH 7.4
T2 construct: Soluble analyte in SPR; also called cyno IL-18Rβ; cynomolgus monkey IL-18Rβ
T2 chain: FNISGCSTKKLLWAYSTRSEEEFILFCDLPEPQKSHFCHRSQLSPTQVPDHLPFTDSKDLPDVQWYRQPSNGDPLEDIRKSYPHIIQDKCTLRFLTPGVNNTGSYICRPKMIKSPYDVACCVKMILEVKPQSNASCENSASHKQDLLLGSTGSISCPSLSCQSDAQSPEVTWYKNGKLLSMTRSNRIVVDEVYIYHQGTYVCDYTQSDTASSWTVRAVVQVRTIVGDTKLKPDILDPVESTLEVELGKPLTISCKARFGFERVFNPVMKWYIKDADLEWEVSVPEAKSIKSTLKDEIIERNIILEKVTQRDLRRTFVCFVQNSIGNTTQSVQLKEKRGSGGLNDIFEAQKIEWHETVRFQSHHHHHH

huIL-18Rβ-HisAvi [3] = molecular target: T1, huIL-18Rβ-HisAvi; assay: SPR T200, mAb on anti-hFc, 37C, pH 7.4
human IL-18Rβ on cells = molecular target: T3, human IL-18Rβ on cells (human, UniProt O95256 20-599); assay: cell-based or functional assay
T3 sequence: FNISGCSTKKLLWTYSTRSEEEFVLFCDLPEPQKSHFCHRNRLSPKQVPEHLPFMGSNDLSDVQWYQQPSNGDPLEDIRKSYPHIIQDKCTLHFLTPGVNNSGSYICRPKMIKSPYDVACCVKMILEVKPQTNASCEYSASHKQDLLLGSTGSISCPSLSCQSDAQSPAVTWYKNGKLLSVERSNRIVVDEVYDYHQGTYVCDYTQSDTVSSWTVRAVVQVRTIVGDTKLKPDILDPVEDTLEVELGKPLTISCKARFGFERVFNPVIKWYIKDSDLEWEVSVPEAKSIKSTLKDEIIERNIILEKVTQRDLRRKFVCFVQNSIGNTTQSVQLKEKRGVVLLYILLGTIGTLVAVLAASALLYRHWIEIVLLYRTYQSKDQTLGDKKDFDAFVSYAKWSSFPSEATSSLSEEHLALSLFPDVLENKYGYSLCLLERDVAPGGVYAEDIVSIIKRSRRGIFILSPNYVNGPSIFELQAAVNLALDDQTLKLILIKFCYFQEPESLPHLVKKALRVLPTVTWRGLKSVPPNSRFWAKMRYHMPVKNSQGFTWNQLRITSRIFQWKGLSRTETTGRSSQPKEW

cyIL-18Rβ-HisAvi [4] = molecular target: T2, cyIL-18Rβ-HisAvi; assay: SPR screen, 1:1 fit
huIL-18Rβ-HisAvi [5] = molecular target: T1, huIL-18Rβ-HisAvi; assay: SPR screen, 1:1 fit
huIL-18Rβ-HisAvi [6] = molecular target: T1, huIL-18Rβ-HisAvi; assay: SPR T200, pH 7.4; sample stored at pH 8, 4 w 4C
huIL-18Rβ-HisAvi [7] = molecular target: T1, huIL-18Rβ-HisAvi; assay: SPR T200, pH 5 against pH 7.4
huIL-18Rβ-HisAvi [8] = molecular target: T1, huIL-18Rβ-HisAvi; assay: SPR T200, pH 7.4; sample stored at pH 8, 4 w 40C
huIL-18Rβ-HisAvi [9] = molecular target: T1, huIL-18Rβ-HisAvi; assay: SPR T200, mAb on anti-hFc, 37C, pH 5
huIL-18Rβ-HisAvi [10] = molecular target: T1, huIL-18Rβ-HisAvi; assay: SPR T200, pH 7.4; sample stored at pH 8, T0
huIL-18Rβ-HisAvi [11] = molecular target: T1, huIL-18Rβ-HisAvi; assay: SPR T200, pH 7.4; sample stored at pH 6, T0
cyIL-18Rβ-HisAvi [12] = molecular target: T2, cyIL-18Rβ-HisAvi; assay: SPR T200, mAb on anti-hFc, 37C, pH 6
huIL-18Rβ-HisAvi [13] = molecular target: T1, huIL-18Rβ-HisAvi; assay: SPR T200, mAb on anti-hFc, 37C, pH 6

- Kd (huIL-18Rβ-HisAvi [1]): 1.4 nM
- koff (huIL-18Rβ-HisAvi [1]): 0.00038 s⁻¹
- kon (huIL-18Rβ-HisAvi [1]): 260000 M⁻¹ s⁻¹
- Kd (cyIL-18Rβ-HisAvi [2]): 19 nM
- koff (cyIL-18Rβ-HisAvi [2]): 0.0029 s⁻¹
- kon (cyIL-18Rβ-HisAvi [2]): 150000 M⁻¹ s⁻¹
- Kd (huIL-18Rβ-HisAvi [3]): 1.8 nM
- koff (huIL-18Rβ-HisAvi [3]): 0.00043 s⁻¹
- kon (huIL-18Rβ-HisAvi [3]): 240000 M⁻¹ s⁻¹
- IC50, IL-18-induced IFNγ release, KG-1 cells (human IL-18Rβ on cells): 0.7 nM
- Kd (cyIL-18Rβ-HisAvi [4]): 18 nM
- Kd (huIL-18Rβ-HisAvi [5]): 1.4 nM
- Kd (huIL-18Rβ-HisAvi [6]): 1.3 nM
- koff (huIL-18Rβ-HisAvi [6]): 0.00034 s⁻¹
- kon (huIL-18Rβ-HisAvi [6]): 270000 M⁻¹ s⁻¹
- KD ratio (KD pH 5/KD pH 7) (huIL-18Rβ-HisAvi [7]): 1.09
- kd ratio (kd pH 5/kd pH 7) (huIL-18Rβ-HisAvi [7]): 0.79
- Kd (huIL-18Rβ-HisAvi [8]): 1.9 nM
- koff (huIL-18Rβ-HisAvi [8]): 0.0005 s⁻¹
- kon (huIL-18Rβ-HisAvi [8]): 260000 M⁻¹ s⁻¹
- Kd (huIL-18Rβ-HisAvi [9]): 2.5 nM
- koff (huIL-18Rβ-HisAvi [9]): 0.0004 s⁻¹
- kon (huIL-18Rβ-HisAvi [9]): 160000 M⁻¹ s⁻¹
- Kd (huIL-18Rβ-HisAvi [10]): 1.5 nM
- koff (huIL-18Rβ-HisAvi [10]): 0.00037 s⁻¹
- kon (huIL-18Rβ-HisAvi [10]): 250000 M⁻¹ s⁻¹
- Kd (huIL-18Rβ-HisAvi [11]): 1.6 nM
- koff (huIL-18Rβ-HisAvi [11]): 0.00038 s⁻¹
- kon (huIL-18Rβ-HisAvi [11]): 240000 M⁻¹ s⁻¹
- Kd (cyIL-18Rβ-HisAvi [12]): 11 nM
- koff (cyIL-18Rβ-HisAvi [12]): 0.002 s⁻¹
- kon (cyIL-18Rβ-HisAvi [12]): 180000 M⁻¹ s⁻¹
- Kd (huIL-18Rβ-HisAvi [13]): 0.65 nM
- koff (huIL-18Rβ-HisAvi [13]): 0.00031 s⁻¹
- kon (huIL-18Rβ-HisAvi [13]): 480000 M⁻¹ s⁻¹
B1: P21 (antibody, human IgG1, kappa, V domains shown)
VH: QVQLQQSGPGLVKPSETLSLTCTVSGGSISNYYWTWIRQPPGKGLEWIGYISDSGSTNYNPSLKSRVTISVDTSKNQFSLKLSSVTAADTAVYYCARETIVVRGFYFYVMDVWGQGTTVTVSS
VL: AIQLTQSPSSLSASVGDRVTITCRASQGISSALAWYQQRPGKAPKLLIYDASNWESGVPSRFSGSGSGTDFTLTISSLQPEDFATYYCQQFNSYPWTFGQGTKVEIKR
notes: Human IgG

- apparent Kd (pooled screen) (huIL-18Rβ-HisAvi [1]): 1.5 nM
- apparent koff (pooled screen) (huIL-18Rβ-HisAvi [1]): 0.00036 s⁻¹
- apparent kon (pooled screen) (huIL-18Rβ-HisAvi [1]): 240000 M⁻¹ s⁻¹
- Kd (cyIL-18Rβ-HisAvi [2]): 1.4 nM
- koff (cyIL-18Rβ-HisAvi [2]): 0.00024 s⁻¹
- kon (cyIL-18Rβ-HisAvi [2]): 180000 M⁻¹ s⁻¹
- apparent Kd (pooled screen) (huIL-18Rβ-HisAvi [3]): 0.51 nM
- apparent koff (pooled screen) (huIL-18Rβ-HisAvi [3]): 0.00017 s⁻¹
- IC50, IL-18-induced IFNγ release, KG-1 cells (human IL-18Rβ on cells): 0.2 nM
- Kd (cyIL-18Rβ-HisAvi [4]): 3.8 nM
- apparent Kd (pooled screen) (huIL-18Rβ-HisAvi [5]): 1.4 nM
- apparent Kd (pooled screen) (huIL-18Rβ-HisAvi [6]): 1.5 nM
- apparent koff (pooled screen) (huIL-18Rβ-HisAvi [6]): 0.00035 s⁻¹
- apparent kon (pooled screen) (huIL-18Rβ-HisAvi [6]): 230000 M⁻¹ s⁻¹
- KD ratio (KD pH 5/KD pH 7) (huIL-18Rβ-HisAvi [7]): 1.08
- kd ratio (kd pH 5/kd pH 7) (huIL-18Rβ-HisAvi [7]): 0.63
- apparent Kd (pooled screen) (huIL-18Rβ-HisAvi [8]): 1.6 nM
- apparent koff (pooled screen) (huIL-18Rβ-HisAvi [8]): 0.00038 s⁻¹
- apparent kon (pooled screen) (huIL-18Rβ-HisAvi [8]): 240000 M⁻¹ s⁻¹
- apparent Kd (pooled screen) (huIL-18Rβ-HisAvi [9]): 2 nM
- apparent koff (pooled screen) (huIL-18Rβ-HisAvi [9]): 0.00021 s⁻¹
- apparent kon (pooled screen) (huIL-18Rβ-HisAvi [9]): 100000 M⁻¹ s⁻¹
- apparent Kd (pooled screen) (huIL-18Rβ-HisAvi [10]): 1.6 nM
- apparent koff (pooled screen) (huIL-18Rβ-HisAvi [10]): 0.00035 s⁻¹
- apparent kon (pooled screen) (huIL-18Rβ-HisAvi [10]): 220000 M⁻¹ s⁻¹
- apparent Kd (pooled screen) (huIL-18Rβ-HisAvi [11]): 1.4 nM
- apparent koff (pooled screen) (huIL-18Rβ-HisAvi [11]): 0.00033 s⁻¹
- apparent kon (pooled screen) (huIL-18Rβ-HisAvi [11]): 230000 M⁻¹ s⁻¹
- Kd (cyIL-18Rβ-HisAvi [12]): 1.6 nM
- koff (cyIL-18Rβ-HisAvi [12]): 0.00028 s⁻¹
- kon (cyIL-18Rβ-HisAvi [12]): 180000 M⁻¹ s⁻¹
- apparent Kd (pooled screen) (huIL-18Rβ-HisAvi [13]): 0.43 nM
- apparent koff (pooled screen) (huIL-18Rβ-HisAvi [13]): 0.00016 s⁻¹
- apparent kon (pooled screen) (huIL-18Rβ-HisAvi [13]): 380000 M⁻¹ s⁻¹
B2: P20 (antibody, human IgG1, kappa)
heavy: QVQLQQSGPGLVKPSETLSLTCTVSGGSINNYYWSWIRQPPGKGLEWIGYIFYSGTTNYNPSLKSRVTISVDTSKNQFSLKLSSVTAADTAVYYCARDVGIAARNSYYYVMDVWGQGTTVTVSSASTKGPSVFPLAPSSKSTSGGTAALGCLVKDYFPEPVTVSWNSGALTSGVHTFPAVLQSSGLYSLSSVVTVPSSSLGTQTYICNVNHKPSNTKVDKRVEPKSCDKTHTCPPCPAPEAEGAPSVFLFPPKPKDTLMISRTPEVTCVVVDVSHEDPEVKFNWYVDGVEVHNAKTKPREEQYNSTYRVVSVLTVLHQDWLNGKEYKCKVSNKALPAPIEKTISKAKGQPREPQVYTLPPSREEMTKNQVSLTCLVKGFYPSDIAVEWESNGQPENNYKTTPPVLDSDGSFFLYSKLTVDKSRWQQGNVFSCSVMHEALHNHYTQKSLSLSPG
light: AIQLTQSPSSLSASVGDRVTITCRASQGISSALAWYQQKPGKAPKFLIYDASSLESGVPSRFSGSGSGTDFTLTISSLQPEDFATYYCQQFNSYPITFGQGTRLEIKRTVAAPSVFIFPPSDEQLKSGTASVVCLLNNFYPREAKVQWKVDNALQSGNSQESVTEQDSKDSTYSLSSTLTLSKADYEKHKVYACEVTHQGLSSPVTKSFNRGEC
notes: Human IgG

- Kd (cyIL-18Rβ-HisAvi [2]): 1.4 nM
- koff (cyIL-18Rβ-HisAvi [2]): 0.00028 s⁻¹
- kon (cyIL-18Rβ-HisAvi [2]): 200000 M⁻¹ s⁻¹
- Kd (huIL-18Rβ-HisAvi [3]): 0.43 nM
- koff (huIL-18Rβ-HisAvi [3]): 0.00015 s⁻¹
- kon (huIL-18Rβ-HisAvi [3]): 340000 M⁻¹ s⁻¹
- Kd (cyIL-18Rβ-HisAvi [12]): 1.7 nM
- koff (cyIL-18Rβ-HisAvi [12]): 0.00028 s⁻¹
- kon (cyIL-18Rβ-HisAvi [12]): 160000 M⁻¹ s⁻¹
- Kd (huIL-18Rβ-HisAvi [13]): 0.45 nM
- koff (huIL-18Rβ-HisAvi [13]): 0.00015 s⁻¹
- kon (huIL-18Rβ-HisAvi [13]): 340000 M⁻¹ s⁻¹
B3: P20-V1 (antibody, human IgG1, kappa, V domains shown)
VH: QVQLQESGPGLVKPSETLSLTCTVSGGSINNYYWSWIRQPPGKGLEWIGYIFYSGTTNYNPSLKSRVTISVDTSKNQFSLKLSSVTAADTAVYYCARDVGIAARNSYYYVMDVWGQGTTVTVSS
VL: AIQLTQSPSSLSASVGDRVTITCRASQGISSALAWYQQKPGKAPKFLIYEASSLESGVPSRFSGSGSGTDFTLTISSLQPEDFATYYCQQFNSYPITFGQGTRLEIKR
notes: Variant of P20
